# Experiment: soluble on expression in E. coli; label from the status in PepcDB or PDB records
row,Sequence,soluble on expression in E. coli
1,MPLMRAIGVIRKSRGERWSREEFEELLRSAGYEILAIVEQVREEHPRYNIGPGKLEEVKKLVKELKPDKVIFANRLTPSQAYNLWKELRVDIIDKWQLVLEIFEKRAHSKEAKLQVELANLQYELPLVKEAIRRIKMGDRAGFKGMGEYQVHQYLKHIKYRMGRIKGELEKIRAEREIRRKKREEEGFVLIALAGYTNAGKSTLLNALTGEDIEAKNQMFTTLDTTTRRFKVKGKMLLVTDTVGFIDGLPPFIVEAFHSTLEEIVKADIIILVLDASEPWKEIRRKLFASLNVLRELKALDRPMIVALNKVDLISDEDAKEKELLVRETIDGRANTVGVARISAKLNQLEELYNLIEVALSRLPKFQTFEIRVKDPSKLGKVLSMVHSMGDLLEVEYSEETKIKAYIQTGLIRELTKLGVSLKRISLEHHHHHH,not soluble
2,MIMASSAAASISMITLRNLSRNHQSHQSTFLGFSRSFHNQRISSNSPGLSTRARSTTSSTGGFFRTICSSSSNDYSRPTKIQELNVYEFNEGDRNSPAVLKLGKKPDQLCLGDLVPFTNKLYTGDLTKRIGITAGLCVLIQHVPEKKGDRFEASYSFYFGDYGHISVQGPYLTYEDTFLAITGGSGVFEGAYGQVKLRQLVYPTKLFYTFYLKGVAADLPVELTGKHVEPSKEVKPAAEAQATQPGATIANFTN,soluble
3,MIERVKGTRDFLPEDMAKRRWVFEKIREVFEAYGFKEILTPVMEYTKLFQLRSGEEVVKQLYAFKDKGGRDVSLRPDMTSSVARLYVNSFQMAPKPIKWYYIANMFRYEEPQSGRYREFWQAGVELIGSDKVEADAEVIALFVESYLSTGLRDFTVNIGDRILLDEFAGMLGVSDDIGLMRIIDKRDKLSQEEFINLLKEFGLGESEIEKVLELVEIKGRPDNVLPLAEELFKSKKAKEEISKLYKLTDLLEWYGVKDWIRIDLGIARGFDYYTSIVFEAISPNELGIGSIGGGGRYDNLIEIFGGKPTPATGFAIGIERLLPILEWKGLIPKPQTGPEVFVIPLKDMEKVAINIAVKLRREKIKTDIELSGRKLGKALDYANRVGAKLVIIVGKRDVERGVVTIRDMESGEQYNVSLNEIVDKVKNLLKR,soluble
4,STAGKVIKCKAAVLWELKKPFSIEEVEVAPPKAHEVRIKMVAAGICRSDEHVVSGNLVTPLPVILGHEAAGIVESVGEGVTTVKPGDKVIPLFTPQCGKCRICKNPESNYCLKNDLGNPRGTLQDGTRRFTCSGKPIHHFVGVSTFSQYTVVDENAVAKIDAASPLEKVCLIGCGFSTGYGSAVKVAKVTPGSTCAVFGLGGVGLSVVMGCKAAGAARIIAVDINKDKFAKAKELGATECINPQDYKKPIQEVLKEMTDGGVDFSFEVIGQLDTMMASLLCCHEACGTSVIVGVPPDSQNLSINPMLLLTGRTWKGAIFGGFKSKESVPKLVADFMAKKFSLDALITNVLPFEKINEGFDLLRSGKSIRTVLTF,soluble
5,MPERIATVGWSNHEVPLALGVTPVGFEKVTWGDDDNNGILPWVEETLSKLGSDEPVLFDATDSIPFEEIANTAPDVILASYSGITQEDYDQLSQIAPVVAYPEIAWGTSLDEMIEMNSKAIGLEQEGKDLIADLDAEVASAIDANPELEHHHHHH,not soluble
6,MHDALRAYIEKYASEKISDADFEEVKKAFTFKRYKKGQFLLQEGEVSKYTAFVLKGSMRQYSVDAKGTEHIIHFGIENWWVGDRESSTMLTPSNYNIDAIEDTEVLLTTSEDLQQLTAALPVIGKMVNTMNQRNFIASQKRIHDALSLTAEERYLELLKNHPDFLQRFPQTMLASYLGITAETYSRIRKKALK,not soluble
7,MAHTITIVGLGNYGIDDLPLGIYKFLKTQDKVYARTLDHPVIESLQDELTFQSFDHVYEAHDQFEDVYNDIVAQLVEAANEKDIVYAVPGHPRVAETTTVKLLALAKDNTDIDVKVLGG,soluble
8,MGLFQIKPDIHYGANSLDILRTLEMEKVFLVTDENMVKLKVINKVTNILKSRGIEAKVYSDVKPDPTDEEIIKGMLELSAHDPDCIIALGGGSPIDACKSMIYFTNQIKRAMGQNKKPKFIAIPTTSGTGSEVTSYAVVTTKDKKIPLSDSEMLPDIAILNPEFIKTLSPSIIADTGMDVLTHAIEAYVSKSRNLFTNTFAIGAIKTVFADLVSNFENPQLEKERINLQIASCMAGVAFSNAGLGINHSIAHSLGARFHKPHGRLNAVIMSEVIQFNARNKNAAKYYREIVEALGFSPKEDVEGVEILAKAIKMRAAKMGIPNSLSELGIPKEQYFDEMEGIIDQIENDMCTGENPRRFSRIEMKQLLTDLY,not soluble
9,MIVFKAENLSVGYNGVKAVSNINFSAKQGEIICLLGPNGAGKTTIIRTLSGLLPPIEGEIHINGKSLSTINKKLLAQTLSVVLTEKPSFDVMTAFDVVSLGRFPHTGFFGTITKEHEIKVVEALKTVGALNLIDKYFHILSDGERQKVMLARALVQEPQIIILDEPTTHLDINHKIELLNTLKNLSRTAKLTVILSLHEIDLALKYCDKVMLVENKKVLSFGSPETTVNGETINKLYGIKNASFNPITSSIELKNSEKSNIYVIGGCGFGTPIYRLLSKYNLGFSTGILHENDIDYETAKTMSLRLQSEKPFQKISKISFEKALAAVASSDIIIDSGFPIGETNEKNLNLLNYAVEKNKRVITFRKYFNSTMSYCSNKDALIDFILRLEHHHHHH,not soluble
10,MLGRALRPGWLGITRTVVKKPSCGSYFNRTFQTAINTTMPPMQEGMLSTMMMMTATATRITGTVSEPLNGSNIVMQLDSVMRKRKKKMKKHKLRKRRKREKAERRKLSQGR,soluble
11,QLLEPIRDFEARKCPVHGKTMELFCQTDQTCICYLCMFQEHKNHSTVTVEEAKAEKETE,soluble
12,MGSDKIHHHHHHMNKEVDLSVSCLGKVKELKYDVIILPWGATEPHNLHLPYLTDCILPHDIAVEAAELALSRSGVRCMVMPPVPFGAHNPGQRELPFCIHTRYATQQAILEDIVSSLHVQGFRKLLILSGHGGNNFKGMIRDLAFEYPDFLIAAANWFEVVSPKGYFEAEIDDHAGESETSVMMHYHPELVNLAEAGDGESKPFAIASLNEKVAWVPRHWDKATVDSGVGNPKKATAEKGERYVKPIVEKLAGLFEEMAQHDLYE,not soluble
13,MTVKSQQQIIDSFKQANQDQLFQYYDSLTIDQQQEFIDQLSTIEEPAKLISTVEQAIQFSQTNSTSRNFTQLPNEQTASTLDLSKDILQNWTELGLKAIGNGEVAVLLMAGGQGTRLGSSAPKGCFNIELPSQKSLFQIQAEKILKIEQLAQQYLKSTKKPIINWYIMTSGPTRNATESFFIENNYFGLNSHQVIFFNQGTLPCFNLQGNKILLELKNSICQSPDGNGGLYKALKDNGILDDLNSKGIKHIHMYCVDNCLVKVADPIFIGFAIAKKFDLATKVVRKRDANESVGLIVLDQDNQKPCVIEYSEISQELANKKDPQDSSKLFLRAANIVNHYYSVEFLNKMIPKWISSQKYLPFHIAKKKIPSLNLENGEFYKPTEPNGIKLEQFIFDVFPSVELNKFGCLEVDRLDEFSPLKNADGAKNDTPTTCRNHYLERSSKWVIQNGGVIDNQGLVEVDSKTSYGGEGLEFVNGKHFKNGDII,soluble
14,MAIERIQLHTHGDDRGLLISLEQQRNVPFEIRRVYYIFGTRQGVHRGQHAHRQLNQLAVALHGSVTLLLDEGQGQGPEEVVLDDPSQGVLLGRMVWRDLHQFSEDCVLMVLADQYYDPGDYILDYDEFLTEARGVSRLEALEHHHHHH,soluble
15,MTLEISNDYGKIDISNEVIASVVGGKAVECYGIVGMASRQQVRDGIAEILGHENYAKGIKVTENNGVVDIDMYIIVSYGVKISEVANNVQSTVKYTLEKSLNVSVNSINIYVQGVRVNNTGKKALEHHHHHH,not soluble
16,MGMVGFRRSRHRRLGAGCGRAGGCMSGVEVITFGCRLNTYESEVMRAEAEKAGLNNAVLVNTCAVTGEAVRQARQAIRRARRDNPHARIIVTGCAAQTEKQTFADMPEVDAVLGNEEKLKSASYRALPDFGVSAEEKLRVNDIMSIKATAPQMVKHIDGHVRAFIQVQNGCDHRCTFCIIPYGRGNSRSVPMGAVVDQARRLTESGYCEIVLTGVDATSYGADLPGEPSLGYLAKTLLKQVPDIIRLRLSSIDSIEADHHLMDLIADEPRFMPHLHLSLQHGDDMILKRMKRRHLRADAIRFCNEVRSLRPDIAFGADMIAGFPTETEEMLENAATLAEECGISSLHVFPYSPREGTPAVRMPQLDRALVKERAGRLRARGEALKQAHLQNMVGSVQTVLVENSGFAHTDNFTLVAAPDLAPRTLAQVAITGHNGKHLNMKLLAADAALEHHHHHH,not soluble
17,MSIKSDSRHLYLQVIDRIKRDIETGVYKEKQKLPSEFELAKQLGVSRATLREALRVLEEENIIIRRHGVGTFVNARPLFTSGIEQLSSVTDMIRQAGRKPGTIFLSSSIQQPTEDDMRRFQCRPDENLLLIERVRTADGEPVVYCLDKILCKYLPKGISYEHESLFENLHNQTHRDIAYAVARIVPLGYHEKVSPILQCDPETALLVLKQMHFDKNDEPIFYSVNYFRSDKFSFHVMRKRFSF,not soluble
18,MQFHAVYQNNDTKANLDFALNISTINFATLQELQNSFDLQGSDLTAGLFYKYSVNKLTSGTNDLTTIAKTALGENIIQKQVSLTQSIIKPRLEAAKTQYKQDIIAPFAKERQAALAQHL,not soluble
19,MKRLLVIGIMYTMFFLIGNIHLHADERTNVKEITSLEEPTWIFQAGISKGKYHDRQDLGFILQRNTPLKVRQTNPNFKDKLTVRLLSNDSKNEKSIQVGNEWITIQGDTPLVPFIDTPYGEEPALLEYQVGNESATKPLPIYKQQGSVSQFFSTWDQFDGEYALIQGESFQLFIPKKDKELVRSLKDFQSLDELIAYYEDIFAMYDSIIGLDGSTVENKKSQNRYFLKADISGAGGAYYGANWTANSTDSTKMWLDKLSWGTLHEIAHGYQAGFDNQGIFTGEVSNNLFGVQYQYSKYGKKADQVGWLFNFGKKEQVERNLYNALMKENKNYDDLDLRQKLILLTMAKQKAGDEAFAKMYQGYRKLASNAAFKKGDHSLPDLMNQYYSENVQVDFTPVFERWGFKLNHKQIEMNRAKGYPAVTSLAYIVPESQLAKARALVDPDIPINSNFEIVRNQQIASLGLKGNLHIHLNTNEIDTLKGGKIKLKEGNTVIQEKTIETADINLQDVPNGIYTVEISGGKTDSMYHFSTYYAYVKEKDNSLTIDVNEMKVSNLVNETIQFLGLGDDQFAELNTDLEQERAVFTVTTKTPHSYYAGEKYASIELFNEKGEKIYTKEMEGTNVTVVKDIIPLKEGYRIKIYHDEVKKRLTSKATIINPMNKTNEIIMTKWGLKNTYLKNNPEENLMKRIDEEMEVIISNPLLKEIPMQKLEMKKNVWMAINMLSEPQKITYINKYKDSLYNE,not soluble
20,MGSDKIHHHHHHAERKNALKVDNGHYYKWKEGNIFYTKTGTGKPILLIHDTDSGASGEEWAKVAKKLAKNNTIYTIDLLGCGRSDKPSIQYTSYMYVQIITAFVDDVIGKPVNVAATNLSTAPVIMANALSKDLFNKIILINPVSLQQLKCIPDKSTKFKQNIINLPIVGTFIYNKLMSPIKVDLLFRNKFISRSQLISDNMKDAYYESAHKGQSRGKYLYSSILSNYINTNIAPALKNLDKDVSIIASTGIKNNMDVINNYHKLNSKCDIIHIANAKLYPQLELPEKTASIIKKIVTN,not soluble
